Target: HCoV-OC43 nucleocapsid (N) protein, 2X-StrepTag tagged (HCoV-OC43) (UniProt P33469)
Assay: BLI

HCoV-OC43 nucleocapsid (N) protein, 2X-StrepTag tagged (HCoV-OC43), sequence (P33469 whole entry): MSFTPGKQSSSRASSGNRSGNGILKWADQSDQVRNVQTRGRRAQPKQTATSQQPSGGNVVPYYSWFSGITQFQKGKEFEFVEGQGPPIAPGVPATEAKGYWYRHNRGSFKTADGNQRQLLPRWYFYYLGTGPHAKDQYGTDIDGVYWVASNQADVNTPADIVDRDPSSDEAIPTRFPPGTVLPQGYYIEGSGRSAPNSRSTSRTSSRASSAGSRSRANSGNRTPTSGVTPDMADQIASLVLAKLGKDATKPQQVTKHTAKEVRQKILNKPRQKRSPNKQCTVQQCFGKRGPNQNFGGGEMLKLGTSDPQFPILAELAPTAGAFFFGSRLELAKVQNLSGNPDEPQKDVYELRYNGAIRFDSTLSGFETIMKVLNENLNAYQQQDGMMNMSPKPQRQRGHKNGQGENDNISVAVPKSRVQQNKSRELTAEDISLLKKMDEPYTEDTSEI

## CXCL4 (ligand)
  Kd: 170 nM
  koff: 0.00088 s⁻¹
  kon: 5300 M⁻¹ s⁻¹

— publication PMC10334784
